In PMC8586454, “Structural and Functional Insights Into Skl and Pal Endolysins, Two Cysteine-Amidases With Anti-pneumococcal Activity. Dithiothreitol (DTT) Effect on Lytic Activity” (Frontiers in Microbiology, 2021):

Assays:
[1] = target: Skl endolysin (N-acetylmuramoyl-L-alanine amidase of the Streptococcus mitis prophage φSK137), wild type (Streptococcus mitis prophage φSK137); experiment: AUC; sedimentation equilibrium, 20°C, single-species model; choline-saturated
[2] = target: Skl endolysin (N-acetylmuramoyl-L-alanine amidase of the Streptococcus mitis prophage φSK137), wild type (Streptococcus mitis prophage φSK137); experiment: AUC; sedimentation velocity, 20°C, PB pH 6.5, under the conditions of the CD titration; choline saturating the lower affinity sites
[3] = target: Skl endolysin (N-acetylmuramoyl-L-alanine amidase of the Streptococcus mitis prophage φSK137), wild type (Streptococcus mitis prophage φSK137); experiment: SAXS; 4°C, 20 mM PB (Pal) or 50 mM Tris–HCl (Skl) pH 8.0, 2–8 mg/ml protein extrapolated to infinite dilution, saturating choline
[4] = target: T1, Pal (Streptococcus phage Dp-1, UniProt O03979); experiment: SAXS of choline-bound dimer; type: binding; details: 20 mM PB pH 8.0, 4 °C; saturating choline
T1 construct: full-length, untagged, E. coli pT7-7 (pPal, amplified from pMSP11); DEAE-cellulose purified with choline elution, dialysed
T1 sequence (O03979 1-296): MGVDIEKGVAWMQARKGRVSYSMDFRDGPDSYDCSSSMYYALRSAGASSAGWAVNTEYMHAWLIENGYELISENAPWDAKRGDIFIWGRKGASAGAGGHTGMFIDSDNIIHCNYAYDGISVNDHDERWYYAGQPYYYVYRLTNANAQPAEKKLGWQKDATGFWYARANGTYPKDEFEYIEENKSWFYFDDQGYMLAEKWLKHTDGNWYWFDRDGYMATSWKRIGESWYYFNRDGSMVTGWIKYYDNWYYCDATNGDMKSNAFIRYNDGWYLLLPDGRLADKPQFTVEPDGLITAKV

[5] = target: Skl Y264H mutant (Streptococcus mitis prophage φSK137); experiment: AUC; sedimentation velocity, 20°C, PB pH 6.5, under the conditions of the CD titration; choline saturating the lower affinity sites
[6] = target: Skl Y264H mutant (Streptococcus mitis prophage φSK137); experiment: AUC; sedimentation equilibrium, 20°C, 50 mM Tris–HCl pH 8.0, increasing choline
[7] = target: the molecule itself; experiment: SAXS; 4°C, 20 mM PB (Pal) or 50 mM Tris–HCl (Skl) pH 8.0, 2–8 mg/ml protein extrapolated to infinite dilution, saturating choline
[8] = target: the molecule itself; experiment: non-reducing SDS-PAGE (intermolecular disulfide); 0.36 mg/ml protein pretreated with 40 mM iodoacetamide, then 1% SDS, sample buffer without β-mercaptoethanol (SB), 12% gel, Coomassie stain

Skl endolysin (N-acetylmuramoyl-L-alanine amidase of the Streptococcus mitis prophage φSK137), wild type (enzyme)
stoichiometry N [1]: 2
stoichiometry N [2]: 2
stoichiometry N [3]: 2

C[N+](C)(C)CCO [choline]
SAXS of choline-bound dimer [4]: Pal dimer in complex with choline

Skl Y264H mutant (enzyme)
percent remaining as monomer [5]: 50%
stoichiometry N [6]: 2

B1: Pal endolysin (N-acetylmuramoyl-L-alanine amidase of the pneumococcal bacteriophage Dp-1), wild type (enzyme, UniProt O03979 1-296, looked up)
chain: MGVDIEKGVAWMQARKGRVSYSMDFRDGPDSYDCSSSMYYALRSAGASSAGWAVNTEYMHAWLIENGYELISENAPWDAKRGDIFIWGRKGASAGAGGHTGMFIDSDNIIHCNYAYDGISVNDHDERWYYAGQPYYYVYRLTNANAQPAEKKLGWQKDATGFWYARANGTYPKDEFEYIEENKSWFYFDDQGYMLAEKWLKHTDGNWYWFDRDGYMATSWKRIGESWYYFNRDGSMVTGWIKYYDNWYYCDATNGDMKSNAFIRYNDGWYLLLPDGRLADKPQFTVEPDGLITAKV
notes: Pal-coding region amplified from pMSP11; No tag; 1 μM equals 0.0345 mg/ml. 'Full length' rests on 'Pal-coding region was PCR amplified'; also called Pal WT; Pal NAM-amidase; source: E. coli BL21(DE3) or C41(DE3), pT7-7 derivative (pPal), purified (DEAE-cellulose, eluted with choline)
stoichiometry N [7]: 2

B2: Pal C112S mutant (enzyme, pneumococcal bacteriophage Dp-1, UniProt O03979 1-296, looked up)
chain: MGVDIEKGVAWMQARKGRVSYSMDFRDGPDSYDCSSSMYYALRSAGASSAGWAVNTEYMHAWLIENGYELISENAPWDAKRGDIFIWGRKGASAGAGGHTGMFIDSDNIIHSNYAYDGISVNDHDERWYYAGQPYYYVYRLTNANAQPAEKKLGWQKDATGFWYARANGTYPKDEFEYIEENKSWFYFDDQGYMLAEKWLKHTDGNWYWFDRDGYMATSWKRIGESWYYFNRDGSMVTGWIKYYDNWYYCDATNGDMKSNAFIRYNDGWYLLLPDGRLADKPQFTVEPDGLITAKV
modifications: free thiols blocked with iodoacetamide before SDS-PAGE
notes: Pal, NAM-amidase of the pneumococcal Dp-1 bacteriophage, with Cys112 changed to serine; source: E. coli BL21(DE3) or C41(DE3), pT7-7 derivative, purified (DEAE-cellulose, eluted with choline)
binding result [8]: binds

B3: Pal C112S–C250S double mutant (enzyme, pneumococcal bacteriophage Dp-1, UniProt O03979 1-296, looked up)
chain: MGVDIEKGVAWMQARKGRVSYSMDFRDGPDSYDCSSSMYYALRSAGASSAGWAVNTEYMHAWLIENGYELISENAPWDAKRGDIFIWGRKGASAGAGGHTGMFIDSDNIIHSNYAYDGISVNDHDERWYYAGQPYYYVYRLTNANAQPAEKKLGWQKDATGFWYARANGTYPKDEFEYIEENKSWFYFDDQGYMLAEKWLKHTDGNWYWFDRDGYMATSWKRIGESWYYFNRDGSMVTGWIKYYDNWYYSDATNGDMKSNAFIRYNDGWYLLLPDGRLADKPQFTVEPDGLITAKV
modifications: free thiols blocked with iodoacetamide before SDS-PAGE
notes: Pal, NAM-amidase of the pneumococcal Dp-1 bacteriophage, with Cys112 and Cys250 changed to serine; source: E. coli BL21(DE3) or C41(DE3), pT7-7 derivative (made from pPal-C250S), purified (DEAE-cellulose, eluted with choline)
binding result [8]: binds
